Values belong to the molecule of their own block, whether it stands above or below them.
Biological target: T1, nSR100 (Mus musculus, UniProt Q8BKA3)
T1 construct: host or cells: mouse N2A cells
T1 sequence (Q8BKA3 1-608): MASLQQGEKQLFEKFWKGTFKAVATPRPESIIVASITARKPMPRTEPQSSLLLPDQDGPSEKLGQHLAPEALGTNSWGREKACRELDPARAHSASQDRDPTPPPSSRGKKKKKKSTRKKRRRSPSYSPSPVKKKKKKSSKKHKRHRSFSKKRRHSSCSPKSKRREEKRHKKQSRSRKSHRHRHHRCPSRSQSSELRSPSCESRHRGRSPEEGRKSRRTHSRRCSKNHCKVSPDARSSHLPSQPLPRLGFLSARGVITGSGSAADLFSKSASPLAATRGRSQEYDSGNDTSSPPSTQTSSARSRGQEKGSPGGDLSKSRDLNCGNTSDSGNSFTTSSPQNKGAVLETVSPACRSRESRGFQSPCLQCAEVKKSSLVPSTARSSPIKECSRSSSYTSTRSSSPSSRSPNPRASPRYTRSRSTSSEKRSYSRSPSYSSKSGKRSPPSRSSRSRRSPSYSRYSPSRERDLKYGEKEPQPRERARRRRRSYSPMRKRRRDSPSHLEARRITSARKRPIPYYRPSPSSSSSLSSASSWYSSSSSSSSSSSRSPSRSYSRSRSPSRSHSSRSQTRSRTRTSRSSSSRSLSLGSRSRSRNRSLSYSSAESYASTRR
Experiment: AP-MS nSR100 interaction partners from mouse N2A cells (Table 5)
Format: binding
Conditions: for AvgP (average of the SAINT scores) / MaxP (maximal SAINT score): bait Srrm4; for FoldChange between the prey Avg spectra of the bait and control purifications: bait Srrm4, 0.1 added to prevent division by 0; for AvgSpec (average number of spectra per replicate): bait Srrm4, 2 replicates; for Spectra (number of spectra for the prey in the purification of the bait): AP-MS; for SpecSum: bait Srrm4, sum of spectra over 2 replicates

[1] = bait Srrm4, biological replicate 1 (first number of the cell)
[2] = bait Srrm4, biological replicate 2 (second number of the cell)

From the text: By applying affinity purification coupled to mass-spectrometry (AP-MS), several interaction nSR100 partner proteins were detected that provide insight into mechanisms of post-translational regulation of nSR100 levels.

AvgP (average of the SAINT scores): 1
MaxP (maximal SAINT score): 1
FoldChange between the prey Avg spectra of the bait and control purifications: 180
AvgSpec (average number of spectra per replicate): 18
Spectra (number of spectra for the prey in the purification of the bait) [1]: 15
Spectra (number of spectra for the prey in the purification of the bait) [2]: 21
SpecSum: 36
B1: Ywhaq (protein, UniProt P68254 1-245, looked up)
14-3-3 protein theta: MEKTELIQKAKLAEQAERYDDMATCMKAVTEQGAELSNEERNLLSVAYKNVVGGRRSAWRVISSIEQKTDTSDKKLQLIKDYREKVESELRSICTTVLELLDKYLIANATNPESKVFYLKMKGDYFRYLAEVACGDDRKQTIENSQGAYQEAFDISKKEMQPTHPIRLGLALNFSVFYYEILNNPELACTLAKTAFDEAIAELDTLNEDSYKDSTLIMQLLRDNLTLWTSDSAGEECDAAEGAEN

AvgP (average of the SAINT scores): 1
MaxP (maximal SAINT score): 1
FoldChange between the prey Avg spectra of the bait and control purifications: 250
AvgSpec (average number of spectra per replicate): 25
Spectra (number of spectra for the prey in the purification of the bait) [1]: 23
Spectra (number of spectra for the prey in the purification of the bait) [2]: 27
SpecSum: 50
B2: Acin1 (protein, UniProt Q9JIX8 1-1338, looked up)
Apoptotic chromatin …: MWGRKRPNSSGETRGILSGNRGVDYGSGRGQSGPFEGRWRKLPKMPEAVGTDPSTSRKMAELEEVTLDGKPLQALRVTDLKAALEQRGLAKSGQKSALVKRLKGALMLENLQKHSTPHAAFQPNSQIGEEMSQNSFIKQYLEKQQELLRQRLEREAREAAELEEASAESEDEMTHPEGVASLLPPDFQSSLNRPELELSTHSPRKSSSFSEEKGESDDEKPRKGERRSSRVRQAKSKLPEYSQTAEEEEDQETPSRNLRVRADRNLKIEEEEEEEEEEEDDDDEEEEEVDEAQKSREAEAPTLKQFEDEEGEERTRAKPEKVVDEKPLNIRSQEKGELEKGGRVTRSQEEARRSHLARQQQEKETQIVSLPQEENEVKSSQSLEEKSQSPSPPPLPEDLEKAPVVLQPEQIVSEEETPPPLLTKEASSPPTHIQLQEEMEPVEGPAPPVLIQLSPPNTDAGAREPLASPHPAQLLRSLSPLSGTTDTKAESPAGRVSDESVLPLAQKSSLPECSTQKGVESEREKSAPLPLTVEEFAPAKGITEEPMKKQSLEQKEGRRASHALFPEHSGKQSADSSSSRSSSPSSSSSPSRSPSPDSVASRPQSSPGSKQRDGAQARVHANPHERPKMGSRSTSESRSRSRSRSRSASSSSRKSLSPGVSRDSNTSYTETKDPSCGQEAAAPSGPQLQVLEPKEKAPTFSASVRGRHLSHPEPEQQHVIQRLQPEQGSPKKCEAEEAEPPAATQPQTSETQISHLLESERTHHTVEEKEEVTMDTSENRPENEVPEPPLPVADQVSNDERPEGGAEEEEKKESSMPKSFKRKISVVSATKGVQAGNSDTEGGQPGRKRRWGASTAATQKKPSISITTESLKSLIPDIKPLAGQEAVVDLHADDSRISEDETERNGDDGTHDKGLKICRTVTQVVPAEGQENGQREEEEEKEPEAELPAPPQVSVEVALPPPVEHEVKKVTLGDTLTRRSISQQKSGVSITIDDPVRTAQVPSPPRGKISNIVHISNLVRPFTLGQLKELLGRTGTLVEEAFWIDKIKSHCFVTYSTVEEAVATRTALHGVKWPQSNPKFLCADYAEQDELDYHRGLLVDRPSETKAEEQGAPRPLHPPPPPPVQPPPHPRAEQREQERAVREQWAEREREMERRERTRSEREWDRDKVREGPRSRSRSRDRRRKERAKSKEKKSEKKEKAQEEPPAKLLDDLFRKTKAAPCIYWLPLTESQIVQKEAEQAERAKEREKRRKEREEEEQKEREKEAERERNRQLEREKRREHSRERERDRERERDRGDRERERERDRDRGRERDRRDTKRHSRSRSRSTPVRDRGGRR

AvgP (average of the SAINT scores): 1
MaxP (maximal SAINT score): 1
FoldChange between the prey Avg spectra of the bait and control purifications: 55
AvgSpec (average number of spectra per replicate): 5.5
Spectra (number of spectra for the prey in the purification of the bait) [1]: 7
Spectra (number of spectra for the prey in the purification of the bait) [2]: 4
SpecSum: 11
B3: Csnk1d (protein, UniProt Q9DC28 1-415, looked up)
Casein kinase I isoform delta: MELRVGNRYRLGRKIGSGSFGDIYLGTDIAAGEEVAIKLECVKTKHPQLHIESKIYKMMQGGVGIPTIRWCGAEGDYNVMVMELLGPSLEDLFNFCSRKFSLKTVLLLADQMISRIEYIHSKNFIHRDVKPDNFLMGLGKKGNLVYIIDFGLAKKYRDARTHQHIPYRENKNLTGTARYASINTHLGIEQSRRDDLESLGYVLMYFNLGSLPWQGLKAATKRQKYERISEKKMSTPIEVLCKGYPSEFATYLNFCRSLRFDDKPDYSYLRQLFRNLFHRQGFSYDYVFDWNMLKFGASRAADDAERERRDREERLRHSRNPATRGLPSTASGRLRGTQEVAPPTPLTPTSHTANTSPRPVSGMERERKVSMRLHRGAPVNVSSSDLTGRQDTSRMSTSQIPGRVASSGLQSVVHR

AvgP (average of the SAINT scores): 1
MaxP (maximal SAINT score): 1
FoldChange between the prey Avg spectra of the bait and control purifications: 4.33
AvgSpec (average number of spectra per replicate): 39
Spectra (number of spectra for the prey in the purification of the bait) [1]: 35
Spectra (number of spectra for the prey in the purification of the bait) [2]: 43
SpecSum: 78
B4: Luc7l2 (protein, UniProt Q7TNC4 1-392, looked up)
Putative RNA-binding protein …: MSAQAQMRAMLDQLMGTSRDGDTTRQRIKFSDDRVCKSHLLNCCPHDVLSGTRMDLGECLKVHDLALRADYEIASKEQDFFFELDAMDHLQSFIADCDRRTEVSKKRLAETQEEISAEVAAKAERVHELNEEIGKLLAKVEQLGAEGNVEESQKVMDEVEKARAKKREAEEVYRNSMPASSFQQQKLRVCEVCSAYLGLHDNDRRLADHFGGKLHLGFIEIREKLEELKRVVAEKQEKRNQERLKRREEREREEREKLRRSRSHSKNPKRSRSREHRRHRSRSMSRERKRRTRSKSREKRHRHRSRSSSRSRSRSHQRSRHSSRDRSRERSKRRSSKERFRDQDLASRDRDRSSRDRSPRDRDRKDKKRSYESANGRSEDRRSSEEREAGEI

AvgP (average of the SAINT scores): 1
MaxP (maximal SAINT score): 1
FoldChange between the prey Avg spectra of the bait and control purifications: 4.83
AvgSpec (average number of spectra per replicate): 111
Spectra (number of spectra for the prey in the purification of the bait) [1]: 108
Spectra (number of spectra for the prey in the purification of the bait) [2]: 114
SpecSum: 222
B5: U2af2 (protein, UniProt P26369 2-475, looked up)
Splicing factor U2AF 65 kDa …: SDFDEFERQLNENKQERDKENRHRKRSHSRSRSRDRKRRSRSRDRRNRDQRSASRDRRRRSKPLTRGAKEEHGGLIRSPRHEKKKKVRKYWDVPPPGFEHITPMQYKAMQAAGQIPATALLPTMTPDGLAVTPTPVPVVGSQMTRQARRLYVGNIPFGITEEAMMDFFNAQMRLGGLTQAPGNPVLAVQINQDKNFAFLEFRSVDETTQAMAFDGIIFQGQSLKIRRPHDYQPLPGMSENPSVYVPGVVSTVVPDSAHKLFIGGLPNYLNDDQVKELLTSFGPLKAFNLVKDSATGLSKGYAFCEYVDINVTDQAIAGLNGMQLGDKKLLVQRASVGAKNATLVSLPSTINQTPVTLQVPGLMSSQVQMGGHPTEVLCLMNMVLPEELLDDEEYEEIVEDVRDECSKYGLVKSIEIPRPVDGVEVPGCGKIFVEFTSVFDCQKAMQGLTGRKFANRVVVTKYCDPDSYHRRDFW

AvgP (average of the SAINT scores): 1
MaxP (maximal SAINT score): 1
FoldChange between the prey Avg spectra of the bait and control purifications: 300
AvgSpec (average number of spectra per replicate): 30
Spectra (number of spectra for the prey in the purification of the bait) [1]: 27
Spectra (number of spectra for the prey in the purification of the bait) [2]: 33
SpecSum: 60
B6: Ccnb1 (protein, UniProt P24860 1-430, looked up)
G2/mitotic-specific cyclin-B1: MALRVTRNTKINAENKAKVSMAGAKRVPVTVTAASKPGLRPRTALGDIGNKVSEELQARVPLKREAKTLGTGKGTVKALPKPVEKVPVCEPEVELAEPEPEPELEHVREEKLSPEPILVDNPSPSPMETSGCAPAEEYLCQAFSDVILAVSDVDADDGADPNLCSEYVKDIYAYLRQLEEEQSVRPKYLQGREVTGNMRAILIDWLIQVQMKFRLLQETMYMTVSIIDRFMQNSCVPKKMLQLVGVTAMFIASKYEEMYPPEIGDFAFVTNNTYTKHQIRQMEMKILRVLNFSLGRPLPLHFLRRASKVGEVDVEQHTLAKYLMELSMLDYDMVHFAPSQIAAGAFCLALKILDNGEWTPTLQHYLSYSEDSLLPVMQHLAKNVVMVNCGLTKHMTVKNKYAASKHAKISTLAQLNCTLVQNLSKAVTKA

AvgP (average of the SAINT scores): 1
MaxP (maximal SAINT score): 1
FoldChange between the prey Avg spectra of the bait and control purifications: 4.6
AvgSpec (average number of spectra per replicate): 23
Spectra (number of spectra for the prey in the purification of the bait) [1]: 22
Spectra (number of spectra for the prey in the purification of the bait) [2]: 24
SpecSum: 46
B7: U2af1 (protein, UniProt Q9D883 2-239, looked up)
Splicing factor U2AF 35 kDa …: AEYLASIFGTEKDKVNCSFYFKIGACRHGDRCSRLHNKPTFSQTIALLNIYRNPQNSSQSADGLRCAVSDVEMQEHYDEFFEEVFTEMEEKYGEVEEMNVCDNLGDHLVGNVYVKFRREEDAEKAVIDLNNRWFNGQPIHAELSPVTDFREACCRQYEMGECTRGGFCNFMHLKPISRELRRELYGRRRKKHRSRSRSRERRSRSRDRGRGGGGGGGGGGGRERDRRRSRDRERSGRF

AvgP (average of the SAINT scores): 1
MaxP (maximal SAINT score): 1
FoldChange between the prey Avg spectra of the bait and control purifications: 7.09
AvgSpec (average number of spectra per replicate): 39
Spectra (number of spectra for the prey in the purification of the bait) [1]: 38
Spectra (number of spectra for the prey in the purification of the bait) [2]: 40
SpecSum: 78
B8: Snrpa (protein, UniProt Q62189 1-287, looked up)
U1 small nuclear …: MATIATMPVPETRANHTIYINNLNEKIKKDELKKSLYAIFSQFGQILDILVSRIMKMRGQAFVIFKEVTSATNALRSMQGFPFYDKPMRIQYAKTDSDIIAKMKGTYVERDRKREKRKPKSQETPAAKKAVQGGAAAPVVGAVQPVPGMPPMPQAPRIMHHMPGQPPYMPPPGMIPPPGLAPGQIPPGAMPPQQLMPGQMPPAQPLSENPPNHILFLTNLPEETNELMLSMLFNQFPGFKEVRLVPGRHDIAFVEFDNEVQAGAARDALQGFKITQNNAMKISFAKK

Reference: patent US10772928B2, “Modulation and detection of a neuronal alternative splicing regulatory network for treatment and diagnosis of neurological disorders” (The Governing Council of the University of Toronto, priority 2014, dated 2020)
